Bridge positions count the residues as written; N and C are the ends. Square brackets hold non-standard residues; d marks the D form. mXylyl = xylyl linker from dibromoxylene joining the two cysteines; Trp(5-Cl) = N[C@@H](Cc1c[nH]c2ccc(Cl)cc12)C(=O)O; des‑NH2 = missing amino-terminal amine group; Phe(3-Cl) = N[C@@H](Cc1cccc(Cl)c1)C(=O)O; Phe(4-Cl) = N[C@@H](Cc1ccc(Cl)cc1)C(=O)O; NMeI = CC[C@H](C)[C@H](NC)C(=O)O; dPhg = N[C@@H](C(=O)O)c1ccccc1; Chg = N[C@H](C(=O)O)C1CCCCC1; Phg = N[C@H](C(=O)O)c1ccccc1; Tle = CC(C)(C)[C@H](N)C(=O)O; αMeP = C[C@@]1(C(=O)O)CCCN1; 2‑APY = not defined here; Dab = NCC[C@H](N)C(=O)O; Mpa = O=C(O)CCS

The assay concerns the target Activated human plasma kallikrein (Enzyme Research Laboratories, HPKa 1303) (human, UniProt P03952 20-638). Kind of assay: cell-based or functional assay.

Sequence of Activated human plasma kallikrein (Enzyme Research Laboratories, HPKa 1303) (P03952 20-638 limits assumed): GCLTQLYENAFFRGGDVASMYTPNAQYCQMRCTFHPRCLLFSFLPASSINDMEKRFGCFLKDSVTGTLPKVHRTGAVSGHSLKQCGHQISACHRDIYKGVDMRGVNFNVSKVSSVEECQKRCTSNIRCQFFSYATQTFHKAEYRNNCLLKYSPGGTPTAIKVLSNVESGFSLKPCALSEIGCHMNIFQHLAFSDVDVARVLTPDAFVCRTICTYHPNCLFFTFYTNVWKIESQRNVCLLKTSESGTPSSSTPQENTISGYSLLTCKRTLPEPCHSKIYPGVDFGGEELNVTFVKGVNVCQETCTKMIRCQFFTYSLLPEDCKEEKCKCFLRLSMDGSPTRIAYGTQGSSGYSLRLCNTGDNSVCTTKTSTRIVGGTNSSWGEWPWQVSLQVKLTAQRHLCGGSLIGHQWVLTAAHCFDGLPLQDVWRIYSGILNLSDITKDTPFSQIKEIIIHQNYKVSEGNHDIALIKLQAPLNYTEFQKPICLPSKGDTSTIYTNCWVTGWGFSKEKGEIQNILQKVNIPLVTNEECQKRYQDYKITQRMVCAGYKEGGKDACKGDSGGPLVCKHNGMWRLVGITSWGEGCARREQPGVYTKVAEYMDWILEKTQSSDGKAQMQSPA

For the molecule {des‑NH2}-CP[Phg]C[Phe(3-Cl)][Tle]-NH2 (linker 1-4 via mXylyl) [R2207], the “Avg. IC50” value was more than 75 µM.

As for {des‑NH2}-CE[Chg]CR[Tle]-NH2 (linker 1-4 via mXylyl) [R2201], the “Avg. IC50” value is 0.007 µM. To {des‑NH2}-CP[dPhg]C[Trp(5-Cl)][Tle]-NH2 (linker 1-4 via mXylyl) [R2210] belongs more than 75 µM.

B1: R2198 (peptide)
peptide: [Mpa]P[Chg]C[2‑APY][Tle]-NH2
modifications: linker 1-4 via mXylyl; reading uncertain; also: printed as [mXylyl(1,4)](Des-NH2)C-P-Chg-C-(2-APY-Tbg-NH2)
B1: the “Avg. IC50” value is more than 15 µM. For {des‑NH2}-CP[Chg]C[2‑amino‑4‑(6-aminopyridin-3-yl)butanoic acid]V-NH2 (linker 1-4 via mXylyl; not fully specified (residue 1)) [R2203] the value was more than 10 µM. On to {des‑NH2}-CP[dPhg]C[Phe(3-Cl)][Tle]-NH2 (linker 1-4 via mXylyl) [R2208], for which the “Avg. IC50” value was more than 75 µM.

In the case of {des‑NH2}-CP[Phg]C[Phe(4-Cl)][Tle]-NH2 (linker 1-4 via mXylyl) [R2205], the “Avg. IC50” value is more than 75 µM.

Consider {des‑NH2}-CP[dPhg]C[Phe(4-Cl)][Tle]-NH2 (linker 1-4 via mXylyl) [R2206], for which the “Avg. IC50” value is more than 75 µM.

As for {des‑NH2}-CP[Chg]CR-{2‑methyl‑1‑(4H-1,2,4-triazol-3-yl)propan‑1‑amine} (linker 1-4 via mXylyl) [R2197], the “Avg. IC50” value worked out at 0.0569 µM.

B2: R2211 (peptide)
peptide: {des‑NH2}-CP[Phg]C[Dab][Tle]-NH2
modifications: linker 1-4 via mXylyl; not fully specified (residue 1); printed as [mXylyl(1,4)](des-NH2)C-P-Phg-C-Dab-Tbg-NH2
For B2, the “Avg. IC50” value is more than 75 µM. {des‑NH2}-C[αMeP][Phg]CR[Tle]-NH2 (linker 1-4 via mXylyl) [R2199]: the “Avg. IC50” value was found to be 0.00054 µM. For {des‑NH2}-CP[Phg]CR[Tle]L-OH (linker 1-4 via mXylyl) [R2202] the value was 0.0588 µM; for {des‑NH2}-C[αMeP][dPhg]CR[Tle]-NH2 (linker 1-4 via mXylyl) [R2200], 0.47 µM.

B3: R2212 (peptide)
peptide: {des‑NH2}-CP[dPhg]C[Dab][Tle]-NH2
modifications: bridge 1-4; not fully specified (residue 1, bridges); printed as [mXylyl(1,4)](des-NH2)C-P-(D-Phg)-C-Dab-Tbg-NH2
On to B3, for which the “Avg. IC50” value is more than 100 µM. For {des‑NH2}-CS[NMeI]CR[Tle]-NH2 (linker 1-4 via mXylyl) [R2204] the value was more than 25 µM; for {des‑NH2}-CP[Phg]C[Trp(5-Cl)][Tle]-NH2 (linker 1-4 via mXylyl) [R2209], more than 75 µM.
